Assay results reported in paper PMC4583294.

Experiments:
[1] = biological target: HMGB1 protein, wild-type, reduced (residues 1-214) (rat)
[2] = biological target: HMGB1 lacking the acidic C-tail (HMGB1ΔC, residues 1-185) (rat)
HMGB1 lacking the acidic C-tail (HMGB1ΔC, residues 1-185) (rat), sequence (P09429 1-185, stated change not applied): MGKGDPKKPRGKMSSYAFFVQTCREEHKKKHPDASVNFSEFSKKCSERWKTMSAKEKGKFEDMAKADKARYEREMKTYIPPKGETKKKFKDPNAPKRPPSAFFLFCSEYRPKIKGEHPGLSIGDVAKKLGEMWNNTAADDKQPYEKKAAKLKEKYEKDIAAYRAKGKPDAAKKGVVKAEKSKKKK

Recombinant mouse histone H1° (referred to as histone H1) (from UniProt P10922 1-194) (natural protein)
inhibition of HMGB1-mediated DNA bending (ligase-mediated circularization of a 123-bp DNA; 50 nM reduced HMGB1, 1-15 nM H1) [1]: 90% | inhibition of HMGB1ΔC-mediated DNA bending (ligase-mediated circularization of a 123-bp DNA; 50 nM reduced HMGB1ΔC, 1-15 nM H1) [2]: 40%
